Test results from patent US10253086B2, “CD20 therapies, CD22 therapies, and combination therapies with a CD19 chimeric antigen receptor (CAR)-expressing cell” (Novartis AG, priority 2015, dated 2019).

Key:
[1] = target: recombinant human CD22-Fc (Homo sapiens, UniProt P20273); experiment: Surface expression of CD22 CAR in primary human T-cells (Protein-L, rhCD22-Fc); format: cell-based; details: day 10, flow cytometry
Method: Primary human T-cells were activated with anti-CD3/antiCD28 stimulatory beads on day 0, followed by lentiviral transduction of specified CAR constructs on day 1. Cells were expanded in vitro until day, 10 at which point they were analyzed by flow cytometry for surface expression of CAR. Two different approaches were utilized to determine surface expression of CAR: Protein-L-biotin followed by streptavidin-PE, and recombinant human CD22-Fc followed by anti-Fc-alexafluor 488. […] CD22 CAR m971 served as a positive control for binding both Protein-L and hrCD22-Fc, and Isotype CAR with no specificity (anti-gH) served as a positive control for Protein-L. T cells expressing no CAR were used as a negative control.

[2] = tested on: Raji, SEM, K562-hCD22, Daudi, and Nalm6; experiment: Primary T-cell tumor target killing assay; format: cell-based, human; details: CD22 expressing luciferase target cell lines
From the text: Primary T-cells activated and transduced as described above were mixed with target cell lines stably expressing luciferase at the ratios indicated (FIG. 20A-20F). […] Untransduced T-cells (UTD) lacked the ability to kill target cell lines.

CD22 = experiment: NFAT assay of CD22 CAR in JNL cells on antigen-coated plates; format: cell-based, human; details: for function in NFAT assay: plates coated with CD22-FL-Fc, CD22-D567-Fc, CD22-D67
Method: Several CD22 CAR constructs were functionally validated in an NFAT assay. Briefly the experiments were performed as follows. A lentiviral vector (pELPS) carrying a nucleic acid, encoding a CD22 CAR with a CD22-binding scFv domain was introduced by electroporation into a Jurkat T cell line modified to express luciferase under the control of an NFAT response element (JNL). The cells were cultured and allowed to express the CAR construct. The electroporated cells were applied to a plate coated with the target antigen (CD22). Detection of luciferase signal in the coated plate was indicative of binding activity of the CD22 CAR to its antigen, leading to activation of the T cells and expression of luciferase.
The results also indicate that the different scFvs compete with m971 to different extents.
FIG. 72 is a graph showing the activation (in RLU) of several CD22 CAR-expressing JNL cells including CD22-57, CD22-58, CD22-59, CD22-60, CD22-61, CD22-62, and CD22-63, the scFv sequences of which are provided herein. Three different target proteins (CD22-FL-Fc, CD22-D567-Fc, and CD22-D67) were used to coat the tissue culture plates; a negative control (Fc) was also included. A mesothelin binding CAR (Meso-G07) was used as a negative control. CD22-12 and CD22-53 were used as positive controls. […] Domain mapping was performed on CD22 binding domains. Three different forms of antigens were used: CD22 full-length with all 7 external domains, Domain567 (in which domains 1-4 were deleted) and Domain67 (in which domains 1-5 were deleted). While not wishing to be bound by theory, it appears that the binding of various CD22 clones maps to the epitopes illustrated in FIG. 75.
Two scFvs, named CD22-64 and CD22-65, were produced by affinity maturation of hCD22-12. CAR constructs containing these scFvs were tested for activity in an NFAT assay as described above. […] The bars in the figure represent, from left to right, CD22 full length-Fc; CD22 D567-Fc; and an Fc only negative control used for coating of the plates.

Raji-Luc and Daudi-Luc = experiment: IFN-gamma and IL-2 secretion by CD22 CAR primary T cells; format: cell-based, human; details: E:T 10 to 1, 20-hr co-culture
Method: CD22 CAR constructs were also tested for the ability to promote secretion of IFN-gamma and IL-2. Briefly, transduced primary T cells from healthy donors expressing the different CD22 CARs were co-cultured with the CD22-positive target cells Raji-Luc and Daudi-Luc as well as the negative control K562-Luc. T cells and target cell were cultured in an effector-to-target cell ratio (E:T) of 10 to 1. Supernatants were harvested after 20-hr co-culture. […] Similar results were observed when Nalm6-Luc, Pfeiffer-Luc, and K562-CD22-Luc, and SEM-Luc cells were tested (data not shown). Minimal IFN-gamma secretion was observed when the K562-Luc negative control cell line was tested (bottom panel).

B1: hCD22-2: human CD22 CAR (protein)
scFv: EVQLQQSGPGLVKPSQTLSLTCAISGDSVSSNSAAWNWIRQSPSRGLEWLGRTYYRSKWYNDYAVSVKSRITINPDTSKNQFSLQLNSVTPEDTAVYYCARDLGWIAVAGTFDYWGQGTLVTVSSGGGGSGGGGSGGGGSQSALTQPASVSGSPGQSITISCTGTSSDVGGYNYVSWYQQHPGKAPKLMIYDVSKRPSGVSNRFSGSKSGNTASLTISGLQAEDEADYYCSSYTSSSLNHVFGTGTKVTVL
Which results are given for B1?
surface expression of CAR [1]: positive surface expression; target cell killing [2]: dose-dependent target cell killing

B2: hCD22-5: human CD22 CAR (protein)
scFv: EVQLVESGGGLVQPGRSLRLSCAASGFTFDDYAMHWVRQAPGKGLEWVSGISWNSGSIGYADSVKGRFTISRDNAKNSLYLQMNSLRAEDTALYYCAKDKGGGYYDFWSGSDYWGQGTLVTVSSGGGGSGGGGSGGGGSSSELTQDPAVSVALGQTVRITCQGDSLRSYYASWYQQKPGQAPVLVIYGKNNRPSGIPDRFSGSSSGNTASLTITGAQAEDEADYYCNSRDSSGWVFGGGTKLTVL
For B2, which “surface expression of CAR” value [1] is on record?
The value was “positive surface expression”.

What about the target cell killing [2] of the same molecule?
The target cell killing was “dose-dependent target cell killing”.

B3: hCD22-10: human CD22 CAR (protein)
scFv: EVQLQQSGPGLVKPSQTLSLTCAISGDSVLSNSDTWNWIRQSPSRGLEWLGRTYHRSTWYDDYASSVRGRVSINVDTSKNQYSLQLNAVTPEDTGVYYCARDRLQDGNSWSDAFDVWGQGTMVTVSSGGGGSGGGGSGGGGSQSALTQPASVSGSPGQSITISCTGTSSDVGGYNYVSWYQQHPGKAPKLMIYDVSNRPSGVSNRFSGSKSGNTASLTISGLQAEDEADYYCSSYTSSSTLVYVFGTGTKVTVL
With B3 as the molecule, how does the “surface expression of CAR” value [1] read?
Its value is “positive surface expression”.

And the target cell killing [2]?
The target cell killing was “dose-dependent target cell killing”.

B4: hCD22-31: human CD22 CAR (protein)
scFv: QVQLVQSGAEVKKPGASVKVSCKASGYTFTSYDINWVRQATGQGLEWMGWMNPNSGNTGYAQKFQGRVTMTRNTSISTAYMELSSLRSEDTAVYYCARGDSNYWSYYGMDVWGQGTLVTVSSGGGGSGGGGSGGGGSGGGGSQSVLTQPRSVSGSPGQSVTISCTGTSSDVGGYNYVSWYQQHPGEAPKLIIYDADKRPSGISNRFSSGKSGNTASLTISGLQVEDEADYYCCSYAGGSTWVFGGGTKVTVL
What does the source list for B4?
surface expression of CAR [1]: positive surface expression; target cell killing [2]: dose-dependent target cell killing

B5: CD22-53: human CD22 CAR, scFv SEQ ID NO 131 (protein)
scFv: EVQLQQSGPGLVKPSQTLSLTCAISGDSVSSNSAAWNWIRQSPSRGLEWLGRTYYRSKWYSDYAVSVKSRITINPDTSKNQFSLQLNSVTPEDTAVYYCARDPYDFWSGYPDAFDIWGQGTMVTVSSGGGGSGGGGSGGGGSQSALTQPASVSGSPGQSITISCTGTSSDVGGYNYVSWYQQHPGKAPKVIISEVNNRPSGVSHRFSGSKSGNTASLTISGLQAEDEADYFCSSYTSGRTLYVFGTGSKVTVLG
Which results are given for B5?
antigen binding / activation (RLU) vs m971 (CD22; with and without m971 scFv competitor): bind the antigen approximately as well as the m971 positive control; IFN-gamma secretion (Raji-Luc and Daudi-Luc): induced IFN-gamma secretion; relative amount of IFN-gamma (Raji-Luc and Daudi-Luc): highest amounts

B6: CD22-57: human CD22 scFv SEQ ID NO 132 (protein, listed as Homo sapiens)
scFv: EVQLQQSGPGLVKPSQTLSLTCAISGDSVSNNNAAWNWIRQSPSRGLEWLGRTYHRSTWYNDYVGSVKSRITINPDTSKNQFSLQLNSVTPEDTAVYYCARETDYGDYGAFDIWGQGTTVTVSSGGGGSGGGGSGGGGSQSALTQPASVSGSPGQSITISCTGSRNDIGAYESVSWYQQHPGNAPKLIIHGVNNRPSGVFDRFSVSQSGNTASLTISGLQAEDEADYYCSSHTTTSTLYVFGTGTKVTVLG
For B6, which “function in NFAT assay” value (CD22) is on record?
The value was “functional”.

B7: CD22-58: human CD22 scFv SEQ ID NO 133 (protein, listed as Homo sapiens)
scFv: EVQLQQSGPGLVNPSQTLSITCAISGDSVSSNSAAWNWIRQSPSRGLEWLGRTFYRSKWYNDYAVSVKGRITISPDTSKNQFSLQLNSVTPEDTAVYYCAGGDYYYGLDVWGQGTTVTVSSGGGGSGGGGSGGGGSQSALTQPASVSGSPGQSITISCTGSSSDVGGYNSVSWYQQHPGKAPKLMIYEVINRPSGVSHRFSGSKSGNTASLTISGLQAEDEADYYCSSYTSSSTYVFGTGTKVTVLG
With B7 as the molecule, how does the “function in NFAT assay” value (CD22) read?
The value was “functional”.

B8: CD22-59: human CD22 scFv SEQ ID NO 134 (protein, listed as Homo sapiens)
scFv: EVQLQQSGPGLVKPSQTLSLTCAISGDSVLSNSDTWNWIRQSPSRGLEWLGRTYHRSTWYDDYASSVRGRVSINVDTSKNQYSLQLNAVTPEDTGVYYCARDRLQDGNSWSDAFDVWGQGTMVTVSSGGGGSGGGGSGGGGSQSALTQPASVSGSPGQSITISCTGSSSDIGGFNYVSWYQQHAGEAPKLMIYEVTNRPSGVSDRFSGSKSDNTASLTISGLQAEDEADYYCSSYASGSPLYVFGTGTKVTVLG
Which “function in NFAT assay” value (CD22) does the source give for B8 here?
Its value is “functional”.

B9: CD22-60: human CD22 scFv SEQ ID NO 135 (protein, listed as Homo sapiens)
scFv: EVQLQQSGPGLVKPSQTLSLTCAISGDSVLSNSDTWNWIRQSPSRGLEWLGRTYHRSTWYDDYASSVRGRVSINVDTSKNQYSLQLNAVTPEDTGVYYCARDRLQDGNSWSDAFDVWGQGTMVTVSSGGGGSGGGGSGSGGSQSALTQPASVSGSPGQSITFSCTGTSSDIGGYNYVSWYQQHPGKAPKLMIYEVSNRPSGVSNRFSGTKSGNTASLTISGLQAEDEADYYCSSYTSSSTLYVFGTGTKLTVLG
For B9, which “function in NFAT assay” value (CD22) is on record?
Its value is “functional”.

B10: CD22-61: human CD22 scFv SEQ ID NO 136 (protein, listed as Homo sapiens)
scFv: QVQLQESGPGLVKPSQTLSLTCAISGDSVLSNSDTWNWIRQSPSRGLEWLGRTYHRSTWYDDYASSVRGRVSINVDTSKNQYSLQLNAVTPEDTGVYYCARDRLQDGNSWSDAFDVWGQGTMVTVSSGGGGSGGGGSGSGGSQSALTQPASVSGSPGQSITISCTGTSSDVGGYNYVSWYQQHPGKAPKLMIYEVSNRPSGVSNRFSGSKSGNTASLTISGLQAEDEADYYCSSYTSSSTLYVFGTGTKVTVLG
B10 was tested. Which “function in NFAT assay” value (CD22) did it give?
The value was “functional”.

B11: CD22-62: human CD22 scFv SEQ ID NO 137 (protein, listed as Homo sapiens)
scFv: EVQLQQSGPGLVKPSQTLSLTCAISGDSVLSNSDTWNWIRQSPSRGLEWLGRTYHRSTWYDDYASSVRGRVSINVDTSKNQYSLQLNAVTPEDTGVYYCARDRLQDGNSWSDAFDVWGQGTMVTVSSGGGGSGGGGSGGGGSQSALTQPASVSGSPGQSITISCTGTSSDVGGYNYVSWYQQHPGKAPKLMIYDVSNRPSGVSNRFSGSKSGNTASLTISGLQAEDEADYYCSSYTSSSTLYVFGTGTKVTVLG
How did the “function in NFAT assay” value (CD22) turn out when B11 was run?
Its value is “functional”.

B12: CD22-63: human CD22 scFv SEQ ID NO 138 (protein, listed as Homo sapiens)
scFv: EVQLQQSGPGLVKPSQTLSLTCAISGDSVLSNSDTWNWIRQSPSRGLEWLGRTYHRSTWYDDYASSVRGRVSINVDTSKNQYSLQLNAVTPEDTGVYYCARDRLQDGNSWSDAFDVWGQGTMVTVSSGGGGSGGGGSGGGGSQSALTQPASVSGSPGQSITISCTGTSSDVGGYNYVSWYQQHPGKAPKLMIYEVSNRPSGVSNRFSGSKSGNTASLTISGLQAEDEADYYCSSYTSSSTLYIFGTGTKVTVLG
B12 was tested. Which “function in NFAT assay” value (CD22) did it give?
The value was “functional”.
